Consider six substances from publication PMC10319729.

Some results are limits rather than exact numbers.

Experiment [1] deals with LGR5ΔCT (human LGR5 without the cytoplasmic C-terminal tail) on HEK293 cells (human) (UniProt O75473). As to the kind of experiment: whole-cell binding, fluorescence plate reader; His-tagged ligand in 3x serial dilution on cells in 96-well plates, on ice 1 h, washed, fixed with 4.2% paraformaldehyde, Alexa488-labeled anti-His antibody; half-maximum binding (KD) from a three-parameter dose-response fit.

For experiment [2], the target named is LGR4 (HA-LGR4) over-expressed on HEK293 cells (UniProt Q9BXB1). As to the kind of experiment: whole-cell binding, fluorescence plate reader; Fc-tagged ligand in 3x serial dilution on cells in 96-well plates, on ice 1 h, washed, fixed with 4.2% paraformaldehyde, Alexa555-labeled anti-human IgG antibody; half-maximum binding (KD) from a three-parameter dose-response fit.

Experiment [3] deals with LGR5ΔCT (human LGR5 without the cytoplasmic C-terminal tail) on HEK293 cells (human) (UniProt O75473). The description is as above.
The target of experiment [4] is RNF43-ECDTM (RNF43 extracellular domain anchored by its transmembrane domain) on HEK293T cells (UniProt Q68DV7). Described as above.
RNF43-ECDTM (RNF43 extracellular domain anchored by its transmembrane domain) on HEK293T cells, sequence (Q68DV7 24-218): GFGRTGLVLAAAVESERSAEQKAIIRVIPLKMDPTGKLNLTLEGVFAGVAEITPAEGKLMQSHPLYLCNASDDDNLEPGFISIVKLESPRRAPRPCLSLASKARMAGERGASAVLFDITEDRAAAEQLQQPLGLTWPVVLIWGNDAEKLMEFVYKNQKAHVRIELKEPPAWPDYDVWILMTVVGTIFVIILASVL
Experiment [5] has as its target ZNRF3ΔRING (ZNRF3 with deletion of the RING domain) on HEK293T cells (UniProt Q9ULT6). The experiment is described as above.

In general, Kd refers to the free concentration of one partner at which half of the binding sites on the other are occupied at equilibrium, for simple one-to-one binding. A high value points to weaker binding. Substance “R2FuTSP-His (RSPO2 furin domain with TSP domain, His-tagged) (from UniProt Q6UXX9 22-205) (domain or fragment)” showed a Kd in experiment [1] of 2.6 nM.

Regarding “R2Fu-mFc (RSPO2 furin domain fused to monomeric human IgG4-Fc, monovalent) (from UniProt Q6UXX9 37-143) (Fc fusion)”, the Kd in experiment [2] is > 50 nM; in experiment [3] it was 1.4 nM.

On to “RSPO2 furin domain with a C-terminal His tag (R2Fu-His) (from UniProt Q6UXX9 37-143) (domain or fragment)”, for which, in experiment [1], the Kd amounted to 1.9 nM. Turning to “R2Fu-bFc (RSPO2 furin domain fused to wild-type IgG1-Fc, bivalent) (from UniProt Q6UXX9 37-143) (Fc fusion)”, the figures for the dissociation constant Kd in experiment [2] and in experiment [3] were 1.6 nM and 0.8 nM, respectively. Regarding “R2Fu-Q70R-mFc (monovalent RSPO2 furin domain with Gln70 to Arg) (from UniProt Q6UXX9 22-243) (Fc fusion)”, the Kd in experiment [4] and in experiment [5] was > 100 nM in each case. For “R2Fu-Q70R-bFc (bivalent RSPO2 furin domain with Gln70 to Arg) (from UniProt Q6UXX9 22-243) (Fc fusion)”, the Kd came to 6.3 nM in experiment [4] and 2.9 nM in experiment [5].
